# In PMC5830446, “Spatial specificity of auxin responses coordinates wood formation”:
# B1: WOX4a (dsDNA)
# DNA 1: GCTCCATGCAGACATGAACATA
# DNA 2: TATGTTCATGTCTGCATGGAGC
# B2: WOX4b (dsDNA)
# DNA 1: AATCTGTCATTACCGACATAGT
# DNA 2: ACTATGTCGGTAATGACAGATT
# Molecular target: T1, ARF5 DNA-binding domain (ARF5-DBD) (UniProt P93024 120-274)
# T1 sequence: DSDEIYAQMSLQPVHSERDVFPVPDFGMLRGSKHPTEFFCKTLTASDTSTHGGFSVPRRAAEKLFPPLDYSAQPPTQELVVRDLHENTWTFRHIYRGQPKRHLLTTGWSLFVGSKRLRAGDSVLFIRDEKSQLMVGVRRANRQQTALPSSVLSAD
# Assay: EMSA; EMSA: 12.5 pmol ARF5-DBD (doubled in competition), 200 fmol Cy5 probe, 10 mM Tris-HCl pH 7.4, 75 mM NaCl, 50 ng/ul poly(dI-dC), 1 mM DTT, 20 min room temperature; 6% native gel, 0.5x TBE
# Settings: protein: recombinant; tags: 6xHis-MBP removed by TEV protease; label: 5' Cy5 (both strands); blunt
row,Binder,binding result
1,B1,binds
2,B2,no binding
